Data reported in publication PMC10786121, “Rab29-dependent asymmetrical activation of leucine-rich repeat kinase 2” (Science (New York, N.Y.), 2023).

B1: Rab29EM (Rab29 Q67L, T71A, S72A) (natural protein)
chain: MGSRDHLFKVLVVGDAAVGKTSLVQRYSQDSFSKHYKSTVGVDFALKVLQWSDYEIVRLQLWDIAGLERFAAMTRLYYRDASACVIMFDVTNATTFSNSQRWKQDLDSKLTLPNGEPVPCLLLANKCDLSPWAVSRDQIDRFSKENGFTGWTETSVKENKNINEAMRVLIEKMMRNS
notes: Rab29, a Rab GTPase encoded in the PARK16 locus, with three point mutations; constructs are in the supplementary Materials and Methods; also called Rab29^peri

What was measured:
[1] = biological target: leucine-rich repeat kinase 2 (LRRK2) (UniProt Q5S007); assay: cryo-EM 2D classification; Rab29 T71A/S72A–LRRK2 complex; 2D classification performed with cross-correlation (fig. S9E); settings: remark: other sources report otherwise
[2] = biological target: leucine-rich repeat kinase 2 (LRRK2) (UniProt Q5S007); assay: cryo-EM structure; complex reconstituted by mixing LRRK2, Rab29EM, GTP analog (GppNHp), ATP and Mg2+; three oligomeric assemblies (monomer, dimer, tetramer); C2 symmetry imposed for dimer and tetramer; settings: remark: other sources report otherwise
[3] = biological target: T1, leucine-rich repeat kinase 2 (LRRK2) (UniProt Q5S007 1-2527); assay: as above; settings: both partners purified
T1 construct: leucine-rich repeat kinase 2 (LRRK2), wild type; domains ARM, ANK, LRR, ROC, COR, KIN, WD40; Near full-length LRRK2^peri could be modelled in the tetramer; Seen as monomer, dimer and tetramer in complex with Rab29; Also stands for the WT LRRK2 transfected into HEK293 cells in the functional rows; also called WT LRRK2; LRRK2^peri
T1 sequence (Q5S007 whole entry): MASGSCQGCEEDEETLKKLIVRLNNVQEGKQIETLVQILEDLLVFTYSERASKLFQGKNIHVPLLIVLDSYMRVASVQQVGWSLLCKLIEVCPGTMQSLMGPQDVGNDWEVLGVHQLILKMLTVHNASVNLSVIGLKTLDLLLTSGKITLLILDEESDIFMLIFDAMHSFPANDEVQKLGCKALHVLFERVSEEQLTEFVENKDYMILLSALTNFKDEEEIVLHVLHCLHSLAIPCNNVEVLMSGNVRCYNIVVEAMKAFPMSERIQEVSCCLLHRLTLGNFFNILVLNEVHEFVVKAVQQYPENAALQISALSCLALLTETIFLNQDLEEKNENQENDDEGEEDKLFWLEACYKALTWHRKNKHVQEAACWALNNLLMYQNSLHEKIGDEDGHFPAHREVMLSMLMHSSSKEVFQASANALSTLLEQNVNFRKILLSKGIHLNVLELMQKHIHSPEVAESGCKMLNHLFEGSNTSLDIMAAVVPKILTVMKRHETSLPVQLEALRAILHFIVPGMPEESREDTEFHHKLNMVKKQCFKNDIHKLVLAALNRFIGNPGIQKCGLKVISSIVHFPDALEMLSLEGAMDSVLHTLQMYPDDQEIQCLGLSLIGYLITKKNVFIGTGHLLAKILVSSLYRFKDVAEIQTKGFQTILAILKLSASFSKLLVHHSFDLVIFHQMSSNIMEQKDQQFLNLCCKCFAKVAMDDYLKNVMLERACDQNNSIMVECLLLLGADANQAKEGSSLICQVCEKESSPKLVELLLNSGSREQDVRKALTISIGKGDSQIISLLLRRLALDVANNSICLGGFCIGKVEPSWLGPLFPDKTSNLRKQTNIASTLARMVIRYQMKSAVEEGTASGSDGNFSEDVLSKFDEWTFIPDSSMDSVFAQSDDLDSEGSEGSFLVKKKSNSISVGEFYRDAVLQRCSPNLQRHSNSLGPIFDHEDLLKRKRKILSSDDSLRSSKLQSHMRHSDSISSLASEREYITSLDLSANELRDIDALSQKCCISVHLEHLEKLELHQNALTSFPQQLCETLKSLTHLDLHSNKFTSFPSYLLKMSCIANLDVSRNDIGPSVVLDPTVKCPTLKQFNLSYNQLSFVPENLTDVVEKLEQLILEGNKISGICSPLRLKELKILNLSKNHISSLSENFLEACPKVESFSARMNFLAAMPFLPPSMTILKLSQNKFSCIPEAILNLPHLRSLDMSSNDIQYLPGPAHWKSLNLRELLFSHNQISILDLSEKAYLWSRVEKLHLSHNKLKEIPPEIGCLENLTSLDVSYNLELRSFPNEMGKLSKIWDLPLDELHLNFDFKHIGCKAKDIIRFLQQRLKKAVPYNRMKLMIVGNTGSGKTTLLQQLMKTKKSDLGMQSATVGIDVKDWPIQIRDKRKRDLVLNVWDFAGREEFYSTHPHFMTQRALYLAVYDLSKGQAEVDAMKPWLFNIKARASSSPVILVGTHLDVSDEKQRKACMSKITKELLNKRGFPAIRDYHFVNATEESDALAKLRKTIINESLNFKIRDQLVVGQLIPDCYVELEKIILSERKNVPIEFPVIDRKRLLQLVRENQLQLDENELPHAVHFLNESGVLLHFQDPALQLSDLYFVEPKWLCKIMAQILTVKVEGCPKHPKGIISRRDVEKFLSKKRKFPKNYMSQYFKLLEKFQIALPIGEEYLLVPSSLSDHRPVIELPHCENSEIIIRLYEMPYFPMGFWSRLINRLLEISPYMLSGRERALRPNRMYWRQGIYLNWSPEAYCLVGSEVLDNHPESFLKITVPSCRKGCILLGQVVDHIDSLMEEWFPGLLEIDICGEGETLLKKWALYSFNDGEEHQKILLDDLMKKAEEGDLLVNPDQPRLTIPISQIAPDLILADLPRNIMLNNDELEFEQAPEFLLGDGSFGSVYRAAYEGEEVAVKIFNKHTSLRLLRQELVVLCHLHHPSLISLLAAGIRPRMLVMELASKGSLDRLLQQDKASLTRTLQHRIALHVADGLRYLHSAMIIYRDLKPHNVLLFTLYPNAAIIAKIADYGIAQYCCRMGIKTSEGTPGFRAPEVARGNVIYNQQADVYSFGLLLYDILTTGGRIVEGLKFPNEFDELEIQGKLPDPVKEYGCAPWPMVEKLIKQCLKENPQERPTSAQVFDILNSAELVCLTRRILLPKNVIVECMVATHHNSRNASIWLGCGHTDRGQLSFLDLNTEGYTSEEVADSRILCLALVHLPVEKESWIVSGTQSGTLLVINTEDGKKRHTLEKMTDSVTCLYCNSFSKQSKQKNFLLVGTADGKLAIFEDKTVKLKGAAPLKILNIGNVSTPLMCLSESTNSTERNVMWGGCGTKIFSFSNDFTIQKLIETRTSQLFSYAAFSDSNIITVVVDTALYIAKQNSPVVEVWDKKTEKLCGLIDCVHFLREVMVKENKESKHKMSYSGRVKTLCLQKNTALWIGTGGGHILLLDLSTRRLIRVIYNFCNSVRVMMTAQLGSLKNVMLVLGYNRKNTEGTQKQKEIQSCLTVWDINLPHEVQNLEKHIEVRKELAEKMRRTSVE

Molecule | stoichiometry N [1] | stoichiometry N [2] | stoichiometry N [3]
leucine-rich repeat kinase 2 (LRRK2), Q5S007 1-2527 | 4 | 4 | –
B1 | – | – | 1
